# Measurements: paper PMC4410877 (Biochemistry, 2009)
# Ends that are not written are not given here.
# Tests used:
# [1] = cited from earlier work
# [2] = 10 °C; cited from earlier work
# [3] = tested on: actin; conditions: literature statement, no reference printed at this sentence; cited from earlier work
# [4] = tested on: cofilin; conditions: cited from earlier work
# [5] = target: T1, αTM1b_(1-19)Zip (1bNTD), unlabeled synthetic peptide (rat | yeast); assay: circular dichroism titration
# T1 chain: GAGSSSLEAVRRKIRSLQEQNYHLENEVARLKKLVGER
molecule,measurement,setting,value
"9aCTD: residues 251-284 of rat striated α-tropomyosin encoded by exon 8 and exon 9a with GCG at the N-terminus (GCGKSIDDLEDELYAQKLKYKAISEELDHALNDMTSI; not fully specified; UniProt P04692 251-284, looked up, fragment)",TM of unfolding of 9aCTD,[1],~ 25 °C
same,helical content of 9aCTD,[2],greater than 75%
Cofilin: actin filament binding and severing protein,affinity of cofilin for the actin filament,[3],high affinity
Tropomyosin,inhibition of cofilin binding and severing,[4],competitive inhibitor
"GCGGSIDDLEEKVAHAKEENLSMHQMLHQTLLELNNM (also: disulfide cross-link between two chains through Cys2 (dimer)) [α-TM9d_(252-284) (9dCTD), disulfide cross-linked]",Kd,[5],< 500 nM
same,stoichiometry N,[5],0.94 ± 0.03 molar ratio
